This note sets out measurements from patent US20230095979A1 (NANTONG YICHEN BIOPHARMA, published 2023).

Experiment [1] concerns the target IL1β 64pBpa mutant (human) (UniProt P01584). In words: monoclonal phage panning on coated antigen, UV 365 nm, competitive/low-pH washes, trypsin release, colony count.
Experiment [2] has the same target. Put plainly: monoclonal phage panning on coated antigen; ratio of output CFU with and without UV crosslinking.
Experiment [3] has the same target. In words: monoclonal phage panning on coated antigen, no UV, competitive/low-pH washes, trypsin release, colony count.
The next experiment concerns the target T1, IL1β WT with 6xHis tag (human, UniProt P01584 117-269).
T1 construct: Expressed in E. coli from pET28a with a C-terminal 6xHis tag; about 19 kDa on SDS-PAGE; also called WT IL1β; wild-type IL1β
Put plainly: monoclonal phage panning on coated antigen; ratio of output CFU with and without UV crosslinking.

Another experiment deals with T2, hC5a with 6xHis tag (human, UniProt P01031 678-751).
T2 construct: also called WT hC5a; WT-hC5a
T2 sequence: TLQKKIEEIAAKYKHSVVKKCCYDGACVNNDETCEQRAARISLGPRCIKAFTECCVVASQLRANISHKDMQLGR
The experiment is described as above.

The next experiment has as its target T3, Val18pBpa mutant of hC5a (human, UniProt P01031 678-751, not fully specified; p-benzoyl-L-phenylalanine (pBpa) at 18).
T3 construct: X stands for pBpa
T3 chain: T2 sequence with V18X
Described as above.

Where a chain is given by its changes, count along the chain named.

Excerpt for IL1β WT with 6xHis tag: Colony Forming Unit (CFU) was counted, and finally the positive clones(hits) were picked.
After elution, the output CFUs of UV and non-UV-treated groups were counted and compared.

B1: 64UV63 phage (scFv)
scFv: ELTLTQSPAFMSATPGDKVNISCKGSQDIDDNMNWYQQKPGEAIIFIIQEATTLVPGIPPRFSGSGYGTDFTLTINNIESEDAAYYFCLQHDNFPPYTFGQGTKLEIKGGSSRSSSSGGGGSGGGGQVQLQESGGGLVQPGGSLRLSCAASGFTFSSYEMNWVRQAPGKGLEWVSYISSSGSTIYYADSVKGRFTISRDNAKNSLYLQMNSLRAEDTAVYYCARDLGGFDPWGQGTLVTASS
notes: also called 64UV63 scFv
B1: the UV-treated output CFU in experiment [1] is 140 CFU. In addition, the figures for the UV-treated output CFU/Non-UV-treated output CFU (in experiment [2]; with IL1β WT with 6xHis tag) were 6.4 and 1.1 ratio, respectively. In addition, in experiment [3], the Non-UV-treated output CFU came to 22 CFU.

B2: hC5a-35 phage (scFv)
scFv: DIQMTQSPSSLSASVGDRVTITCQASQDISNYLNWYQQKPGKAPKLLIYDASNLETGVPSRFSGSGSGTDFTFTIRSLQPEDIATYYCQQYDNLPPWTFGQGTKVEIKGGSSRSSSSGGGGSGGGGEVQLVESGGGLVEPGRSLRLSCTASGYTFGDYAMSWFRQAPGKDLEWVGFIRSKAYGGTTEYAASVKGRFTISRDDSKSIAYLQMNSLKTEDTAVYYCTRAGNDDQYFDYWGQGTQVTVSS
notes: also called hC5a-35scfv; hC5a-35 scfv
In the case of B2, the “UV-treated output CFU/Non-UV-treated output CFU” value in the experiment with hC5a with 6xHis tag came out at 1.1 ratio; with Val18pBpa mutant of hC5a, 3.3 ratio.
